According to US20220332804A1 (CSL INNOVATION, published 2022):
Positions count from the first letter of the chain named.

Assays:
Test in all cases: SPR, antibody captured, C2 as analyte;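 further: biacore at 37 °C, anti-C2 mAbs held by immobilised goat anti-human IgG, C2 alanine or serine mutants injected, double-referenced sensorgrams fitted to a 1:1 kinetic or steady-state model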
human C2 E324A = target: T1, human C2 E324A (human, UniProt P06681 21-752)
T1 sequence: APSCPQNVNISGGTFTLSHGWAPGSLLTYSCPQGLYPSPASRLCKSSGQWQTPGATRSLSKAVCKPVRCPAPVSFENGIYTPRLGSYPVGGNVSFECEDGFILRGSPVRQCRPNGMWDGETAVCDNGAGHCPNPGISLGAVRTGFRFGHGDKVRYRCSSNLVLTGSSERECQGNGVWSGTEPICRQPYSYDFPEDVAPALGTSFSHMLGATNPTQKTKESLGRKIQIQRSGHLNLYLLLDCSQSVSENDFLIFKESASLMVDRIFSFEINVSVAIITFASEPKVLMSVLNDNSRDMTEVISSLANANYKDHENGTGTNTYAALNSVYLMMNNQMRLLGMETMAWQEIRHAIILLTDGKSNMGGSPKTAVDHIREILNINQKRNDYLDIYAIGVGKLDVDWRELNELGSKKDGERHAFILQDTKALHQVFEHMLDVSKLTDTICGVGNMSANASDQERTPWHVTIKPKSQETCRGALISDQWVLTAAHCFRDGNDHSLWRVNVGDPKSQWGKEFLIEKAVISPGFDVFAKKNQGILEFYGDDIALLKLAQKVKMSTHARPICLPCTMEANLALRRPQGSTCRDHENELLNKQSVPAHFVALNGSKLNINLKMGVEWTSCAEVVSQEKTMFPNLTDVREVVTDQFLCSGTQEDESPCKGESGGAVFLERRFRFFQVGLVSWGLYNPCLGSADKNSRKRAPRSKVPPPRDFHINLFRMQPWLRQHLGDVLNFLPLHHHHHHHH

human C2 A470S = target: T2, human C2 A470S (human, UniProt P06681 21-752)
T2 sequence: T1 sequence with A304E, A450S

human C2 S469A = target: T3, human C2 S469A (human, UniProt P06681 21-752)
T3 sequence: T1 sequence with A304E, S449A

human C2 G427A = target: T4, human C2 G427A (human, UniProt P06681 21-752)
T4 sequence: T1 sequence with A304E, G407A

B1: RF16-242 (antibody, human IgG4 S228P, lambda, V domains shown)
VH: EVQLLQSGAEVKKPGESLKISCKGSGYSFTSYWIGWVRQMPGKGLEWMGIIYPGDSDTRYSPSFQGQVTISADKSISTAYLQWSSLKASDTAMYYCARRGHYGDYFDYWGQGTLVTVSS
VL: SYELTQPPSVSVSPGQTARITCSGDALPKKYAYWYHQKSGQAPVLVIYEDRRRPSEIPERFSGSSSGTMATLTITGAQVEDEGVYFCYSRDRAGNQRVFGGGTQLTVLG
notes: pH-dependent anti-C2 antibody from a phage display library
Human C2 E324A
  Kd: 10.7 nM
Human C2 A470S
  Kd: 5 nM
Human C2 S469A
  Kd: 21.4 nM
Human C2 G427A
  Kd: 4 nM
